Data: article PMC10213783, “Crystal structures of glycoprotein D of equine alphaherpesviruses reveal potential binding sites to the entry receptor MHC-I” (Frontiers in Microbiology, 2023)

T1: Recombinant equine MHC-I 3.1 (Eqca-1*00101) with the peptide SDYVKVSNI linked to β2-microglobulin (equine (horse) | horse | )
T1 chain 1: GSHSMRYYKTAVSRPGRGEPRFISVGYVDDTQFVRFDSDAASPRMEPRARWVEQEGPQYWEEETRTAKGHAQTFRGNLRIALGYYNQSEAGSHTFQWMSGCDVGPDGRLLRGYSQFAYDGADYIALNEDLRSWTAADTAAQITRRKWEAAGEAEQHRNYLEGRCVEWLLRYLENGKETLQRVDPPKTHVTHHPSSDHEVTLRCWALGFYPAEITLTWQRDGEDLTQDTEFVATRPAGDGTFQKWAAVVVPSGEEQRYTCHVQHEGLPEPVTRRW
T1 chain 2: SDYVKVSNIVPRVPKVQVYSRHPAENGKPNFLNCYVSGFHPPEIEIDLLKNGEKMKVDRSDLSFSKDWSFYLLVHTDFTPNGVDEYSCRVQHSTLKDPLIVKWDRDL

B1: Recombinant soluble glycoprotein D of equine herpesvirus type 4, gD4_(32-349) (domain or fragment)
chain: ENYRRVVRGNQNQRPEFPPPRYNFTIVTTYNETSLPSPFINDQVKIVDVRTVAATRPCEMIALIAKTNVDSIIKELDAAHKTYSARLTWFKITPTCATPIHDVVYMKCNPKLLFGMCDERSNILWLNSLITTAAETDDELGLVLASPAHSYSGLYRRVIQIDGRRIYTDFSVTIPSSHCPLSFEQNFGNPDRCKTPEQYSRGEVYTSRFLSEFNYRQGVHLAWVKHWFVQDGGNLPVQFYEAQAFARPVPPDNHPGFDSVESEITQNKTNPKQEQASPKPNPPFKWPSIKQLAPRIDEVDNAKEITTKKPPASNSNSTF
modifications: Insect-cell N-glycosylation; disulfides C87/C209, C126/C223, C138/C147. Entity position = paper number -30. The deposited construct starts at E31 although the text prints 32-349; TEV-His6 removed. / …
B2: C-terminally truncated EHV-4 glycoprotein D, gD4_(36-280) (domain or fragment)
chain: VVRGNQNQRPEFPPPRYNFTIVTTYNETSLPSPFINDQVKIVDVRTVAATRPCEMIALIAKTNVDSIIKELDAAHKTYSARLTWFKITPTCATPIHDVVYMKCNPKLLFGMCDERSNILWLNSLITTAAETDDELGLVLASPAHSYSGLYRRVIQIDGRRIYTDFSVTIPSSHCPLSFEQNFGNPDRCKTPEQYSRGEVYTSRFLSEFNYRQGVHLAWVKHWFVQDGGNLPVQFYEAQAFARPVP
modifications: Insect-cell N-glycosylation; disulfides C87/C209, C126/C223, C138/C147. Entity position = paper number -30. / Peptide is covalently linked to beta2m. The linker sequence is not printed (supplement) …
B3: Recombinant soluble glycoprotein D of equine herpesvirus type 1, gD1_(32-349) (domain or fragment)
chain: EKAKRAVRGRQDRPKEFPPPRYNYTILTRYNATALASPFINDQVKNVDLRIVTATRPCEMIALIAKTNIDSILKELAAAQKTYSARLTWFKIMPTCATPIHDVSYMKCNPKLSFAMCDERSDILWQASLITMAAETDDELGLVLAAPAHSASGLYRRVIEIDGRRIYTDFSVTIPSERCPIAFEQNFGNPDRCKTPEQYSRGEVFTRRFLGEFNFPQGEHMTWLKFWFVYDGGNLPVQFYEAQAFARPVPPDNHPGFDSVESEITQNKTDPKPGQADPKPNQPFKWPSIKHLAPRLDEVDEVIEPVTKPPKTSKSNSTF
modifications: N-linked glycosylation (GlcNAc) visible at N53 and N61

Biological target: T1, Recombinant equine MHC-I 3.1 …
Assay: SPR; recombinant equine MHC-I 3.1 amine-coupled to a polycarboxylate hydrogel chip HC200M; gDs injected in serial dilutions from 0 to about 10 uM, 15 min; 25°C; Biacore J; equilibrium response fitted to a 1:1 model; apparent constants
Settings: both partners purified

Row | Binder | Kd
1 | B1 | 5.8 ± 0.76 µM
2 | B2 | 6.7 ± 0.75 µM
3 | B3 | 7 µM
